How the values were obtained:
Assay in all cases: cell-based or functional assay
[1] = target: HIV-1 Env of pseudovirus 1012_11_TC21_3257 (HIV-1)
[2] = target: HIV-1 Env of pseudovirus 191084 B7-19 (HIV-1)
[3] = target: HIV-1 Env of pseudovirus 191821_E6_1 (HIV-1)
[4] = target: HIV-1 Env of pseudovirus 191955_A11 (HIV-1)
[5] = target: HIV-1 Env of pseudovirus 231965.c01 (HIV-1)
[6] = target: HIV-1 Env of pseudovirus 3301.v1.c24 (HIV-1)
[7] = target: HIV-1 Env of pseudovirus 3365.v2.c2 (HIV-1)
[8] = target: HIV-1 Env of pseudovirus 3415.v1.c1 (HIV-1)
[9] = target: HIV-1 Env of pseudovirus 6041.v3.c23 (HIV-1)
[10] = target: HIV-1 Env of pseudovirus 62357_14_D3_4589 (HIV-1)
[11] = target: HIV-1 Env of pseudovirus 6240_08_TA5_4622 (HIV-1)
[12] = target: HIV-1 Env of pseudovirus AC10.0.29 (HIV-1)
[13] = target: HIV-1 Env of pseudovirus C3347.c11 (HIV-1)
[14] = target: HIV-1 Env of pseudovirus CAAN5342.A2 (HIV-1)
[15] = target: HIV-1 Env of pseudovirus CNE19 (HIV-1)
[16] = target: HIV-1 Env of pseudovirus CNE21 (HIV-1)
[17] = target: HIV-1 Env of pseudovirus CNE5 (HIV-1)
[18] = target: HIV-1 Env of pseudovirus CNE58 (HIV-1)
[19] = target: HIV-1 Env of pseudovirus Ce1172_H1 (HIV-1)
[20] = target: HIV-1 Env of pseudovirus Ce704809221_1B3 (HIV-1)
[21] = target: HIV-1 Env of pseudovirus Du422.1 (HIV-1)
[22] = target: HIV-1 Env of pseudovirus P1981_C5_3 (HIV-1)
[23] = target: HIV-1 Env of pseudovirus Q259.d2.17 (HIV-1)
[24] = target: HIV-1 Env of pseudovirus Q461.e2 (HIV-1)
[25] = target: HIV-1 Env of pseudovirus R3265.c06 (HIV-1)
[26] = target: HIV-1 Env of pseudovirus RHPA4259.7 (HIV-1)
[27] = target: HIV-1 Env of pseudovirus T250-4 (HIV-1)
[28] = target: HIV-1 Env of pseudovirus T255-34 (HIV-1)
[29] = target: HIV-1 Env of pseudovirus T278-50 (HIV-1)
[30] = target: HIV-1 Env of pseudovirus THRO4156.18 (HIV-1)
[31] = target: HIV-1 Env of pseudovirus WITO4160.33 (HIV-1)
[32] = target: HIV-1 Env of pseudovirus ZM135M.PL10a (HIV-1)
[33] = target: HIV-1 Env of pseudovirus ZM197M.PB7 (HIV-1)
[34] = target: HIV-1 Env of pseudovirus ZM214M.PL15 (HIV-1)
[35] = target: 92BR020 D325A (HIV-1)
[36] = target: 92BR020 N136A (HIV-1)
[37] = target: 92BR020 N156A + N332A (HIV-1)
[38] = target: 92BR020 Q328A (HIV-1)
[39] = target: HIV-1 Env of pseudovirus ZM247v1(Rev-) (HIV-1)
[40] = target: JR-CSF D325A (HIV-1) (UniProt P20871)
[41] = target: JR-CSF I326A (HIV-1) (UniProt P20871)
[42] = target: JR-CSF N386A (HIV-1) (UniProt P20871)

BG18 IgG (354BG18) (antibody)
IC50 in TZM-bl assay [1]: 0.003 µg/mL
IC80 in TZM-bl assay [1]: 0.012 µg/mL
IC50 in TZM-bl assay [2]: 0.011 µg/mL
IC80 in TZM-bl assay [2]: 0.043 µg/mL
IC50 in TZM-bl assay [3]: 14.1 µg/mL
IC80 in TZM-bl assay [3]: > 30 µg/mL
IC50 in TZM-bl assay [4]: > 30 µg/mL
IC80 in TZM-bl assay [4]: > 30 µg/mL
IC50 in TZM-bl assay [5]: > 30 µg/mL
IC80 in TZM-bl assay [5]: > 30 µg/mL
IC50 in TZM-bl assay [6]: 0.025 µg/mL
IC80 in TZM-bl assay [6]: 0.082 µg/mL
IC50 in TZM-bl assay [7]: 0.013 µg/mL
IC80 in TZM-bl assay [7]: 0.037 µg/mL
IC50 in TZM-bl assay [8]: 0.023 µg/mL
IC80 in TZM-bl assay [8]: 0.087 µg/mL
IC50 in TZM-bl assay [9]: > 30 µg/mL
IC80 in TZM-bl assay [9]: > 30 µg/mL
IC50 in TZM-bl assay [10]: 3.01 µg/mL
IC80 in TZM-bl assay [10]: > 30 µg/mL
IC50 in TZM-bl assay [11]: 0.003 µg/mL
IC80 in TZM-bl assay [11]: 0.01 µg/mL
IC80 in TZM-bl assay [12]: 0.003 µg/mL
IC50 in TZM-bl assay [13]: > 30 µg/mL
IC80 in TZM-bl assay [13]: > 30 µg/mL
IC50 in TZM-bl assay [14]: 0.008 µg/mL
IC80 in TZM-bl assay [14]: 0.04 µg/mL
IC50 in TZM-bl assay [15]: > 30 µg/mL
IC80 in TZM-bl assay [15]: > 30 µg/mL
IC50 in TZM-bl assay [16]: 0.002 µg/mL
IC80 in TZM-bl assay [16]: 0.007 µg/mL
IC50 in TZM-bl assay [17]: > 30 µg/mL
IC80 in TZM-bl assay [17]: > 30 µg/mL
IC50 in TZM-bl assay [18]: 0.024 µg/mL
IC80 in TZM-bl assay [18]: 0.073 µg/mL
IC50 in TZM-bl assay [19]: 0.002 µg/mL
IC80 in TZM-bl assay [19]: 0.007 µg/mL
IC50 in TZM-bl assay [20]: 4.39 µg/mL
IC80 in TZM-bl assay [20]: > 30 µg/mL
IC50 in TZM-bl assay [21]: 0.009 µg/mL
IC80 in TZM-bl assay [21]: 0.057 µg/mL
IC50 in TZM-bl assay [22]: 0.006 µg/mL
IC80 in TZM-bl assay [22]: 0.019 µg/mL
IC50 in TZM-bl assay [23]: > 30 µg/mL
IC80 in TZM-bl assay [23]: > 30 µg/mL
IC50 in TZM-bl assay [24]: > 30 µg/mL
IC80 in TZM-bl assay [24]: > 30 µg/mL
IC50 in TZM-bl assay [25]: > 30 µg/mL
IC80 in TZM-bl assay [25]: > 30 µg/mL
IC50 in TZM-bl assay [26]: 1.44 µg/mL
IC80 in TZM-bl assay [26]: > 30 µg/mL
IC80 in TZM-bl assay [27]: 0.006 µg/mL
IC50 in TZM-bl assay [28]: > 30 µg/mL
IC80 in TZM-bl assay [28]: > 30 µg/mL
IC50 in TZM-bl assay [29]: 2.95 µg/mL
IC80 in TZM-bl assay [29]: 12.9 µg/mL
IC50 in TZM-bl assay [30]: > 30 µg/mL
IC80 in TZM-bl assay [30]: > 30 µg/mL
IC50 in TZM-bl assay [31]: 0.018 µg/mL
IC80 in TZM-bl assay [31]: 0.25 µg/mL
IC50 in TZM-bl assay [32]: 0.029 µg/mL
IC80 in TZM-bl assay [32]: 0.161 µg/mL
IC50 in TZM-bl assay [33]: > 30 µg/mL
IC80 in TZM-bl assay [33]: > 30 µg/mL
IC50 in TZM-bl assay [34]: > 30 µg/mL
IC80 in TZM-bl assay [34]: > 30 µg/mL

PGT121 (antibody)
IC50 in TZM-bl assay [35]: 0.006 µg/mL
IC50 in TZM-bl assay [36]: 0.002 µg/mL
IC50 in TZM-bl assay [37]: > 1 µg/mL
IC50 in TZM-bl assay [38]: 0.002 µg/mL
IC50 in TZM-bl assay [1]: 0.008 µg/mL
IC80 in TZM-bl assay [1]: 0.034 µg/mL
IC50 in TZM-bl assay [2]: 0.038 µg/mL
IC80 in TZM-bl assay [2]: 0.118 µg/mL
IC50 in TZM-bl assay [3]: > 10 µg/mL
IC80 in TZM-bl assay [3]: > 10 µg/mL
IC50 in TZM-bl assay [4]: > 10 µg/mL
IC80 in TZM-bl assay [4]: > 10 µg/mL
IC50 in TZM-bl assay [5]: > 10 µg/mL
IC80 in TZM-bl assay [5]: > 10 µg/mL
IC50 in TZM-bl assay [6]: 0.013 µg/mL
IC80 in TZM-bl assay [6]: 0.041 µg/mL
IC50 in TZM-bl assay [7]: 0.243 µg/mL
IC80 in TZM-bl assay [7]: 2.13 µg/mL
IC50 in TZM-bl assay [8]: > 10 µg/mL
IC80 in TZM-bl assay [8]: > 10 µg/mL
IC50 in TZM-bl assay [9]: > 10 µg/mL
IC80 in TZM-bl assay [9]: > 10 µg/mL
IC50 in TZM-bl assay [10]: 6.21 µg/mL
IC80 in TZM-bl assay [10]: > 10 µg/mL
IC50 in TZM-bl assay [11]: 0.068 µg/mL
IC80 in TZM-bl assay [11]: 0.231 µg/mL
IC50 in TZM-bl assay [12]: 0.019 µg/mL
IC80 in TZM-bl assay [12]: 0.06 µg/mL
IC50 in TZM-bl assay [14]: 0.008 µg/mL
IC80 in TZM-bl assay [14]: 0.026 µg/mL
IC80 in TZM-bl assay [15]: 0.083 µg/mL
IC50 in TZM-bl assay [16]: 0.009 µg/mL
IC80 in TZM-bl assay [16]: 0.031 µg/mL
IC50 in TZM-bl assay [17]: > 10 µg/mL
IC80 in TZM-bl assay [17]: > 10 µg/mL
IC50 in TZM-bl assay [18]: > 10 µg/mL
IC80 in TZM-bl assay [18]: > 10 µg/mL
IC50 in TZM-bl assay [19]: 0.007 µg/mL
IC80 in TZM-bl assay [19]: 0.03 µg/mL
IC50 in TZM-bl assay [20]: 0.043 µg/mL
IC80 in TZM-bl assay [20]: 0.285 µg/mL
IC50 in TZM-bl assay [21]: 0.017 µg/mL
IC80 in TZM-bl assay [21]: 0.088 µg/mL
IC50 in TZM-bl assay [22]: 0.002 µg/mL
IC80 in TZM-bl assay [22]: 0.009 µg/mL
IC50 in TZM-bl assay [23]: 3.07 µg/mL
IC80 in TZM-bl assay [23]: > 10 µg/mL
IC50 in TZM-bl assay [24]: > 10 µg/mL
IC80 in TZM-bl assay [24]: > 10 µg/mL
IC50 in TZM-bl assay [25]: > 10 µg/mL
IC80 in TZM-bl assay [25]: > 10 µg/mL
IC50 in TZM-bl assay [26]: 0.013 µg/mL
IC80 in TZM-bl assay [26]: 0.046 µg/mL
IC50 in TZM-bl assay [27]: 0.003 µg/mL
IC80 in TZM-bl assay [27]: 0.009 µg/mL
IC50 in TZM-bl assay [28]: 2.63 µg/mL
IC80 in TZM-bl assay [28]: > 10 µg/mL
IC50 in TZM-bl assay [29]: > 10 µg/mL
IC80 in TZM-bl assay [29]: > 10 µg/mL
IC50 in TZM-bl assay [30]: > 10 µg/mL
IC80 in TZM-bl assay [30]: > 10 µg/mL
IC50 in TZM-bl assay [31]: 0.301 µg/mL
IC80 in TZM-bl assay [31]: 3.2 µg/mL
IC50 in TZM-bl assay [32]: 0.73 µg/mL
IC80 in TZM-bl assay [32]: 5.73 µg/mL
IC50 in TZM-bl assay [33]: > 10 µg/mL
IC80 in TZM-bl assay [33]: > 10 µg/mL
IC50 in TZM-bl assay [34]: 0.288 µg/mL
IC80 in TZM-bl assay [34]: 2.46 µg/mL
IC50 in TZM-bl assay [39]: 0.036 µg/mL
IC80 in TZM-bl assay [39]: 0.123 µg/mL
IC50 in TZM-bl assay [40]: 0.079 µg/mL
IC50 in TZM-bl assay [41]: 0.024 µg/mL
IC50 in TZM-bl assay [42]: 0.024 µg/mL
